Measurements as given in ChEMBL document CHEMBL1135259, “Azapeptides as inhibitors of the hepatitis C virus NS3 serine protease” (Bioorg Med Chem Lett, 2002).

Experiments:
Conditions in all cases: Hepacivirus hominis
[1] = substrate: CCCN(NC(=O)[C@H]1CCCN1C(=O)[C@@H](NC(=O)[C@@H](NC(=O)[C@H](CC(=O)O)NC(=O)[C@H](CCC(=O)O)NC(=O)[C@@H](NC(=O)[C@H](CC(=O)O)NC(C)=O)[C@@H](C)O)C(C)C)C(C)C)C(=O)Oc1ccc([N+](=O)[O-])cc1; assay: Michaelis-Menten constant against Hepatitis C virus NS3 protease and represented as Km
[2] = substrate: CCCC(NC(=O)[C@H]1CCCN1C(=O)[C@@H](NC(=O)[C@@H](NC(=O)[C@H](CC(=O)O)NC(=O)[C@H](CCC(=O)O)NC(=O)[C@@H](NC(=O)[C@H](CC(=O)O)NC(C)=O)[C@@H](C)O)C(C)C)C(C)C)C(=O)Oc1ccc([N+](=O)[O-])cc1; assay: (§1) Michaelis-Menten constant was determined against Hepatitis C virus NS3 protease and represented as Km
[3] = substrate: CCCN(NC(=O)[C@H]1CCCN1C(=O)[C@@H](NC(=O)[C@@H](NC(=O)[C@H](CC(=O)O)NC(=O)[C@H](CCC(=O)O)NC(C)=O)C(C)C)C(C)C)C(=O)Oc1ccc([N+](=O)[O-])cc1; assay: as §1
[4] = substrate: CCCN(NC(=O)[C@H]1CCCN1C(=O)[C@@H](NC(=O)[C@@H](NC(=O)[C@H](CC(=O)O)NC(C)=O)C(C)C)C(C)C)C(=O)Oc1ccc([N+](=O)[O-])cc1; assay: as §1
[5] = substrate: CCCN(NC(=O)[C@H]1CCCN1C(=O)[C@@H](NC(=O)[C@@H](NC(C)=O)C(C)C)C(C)C)C(=O)Oc1ccc([N+](=O)[O-])cc1; assay: as §1
[6] = substrate: CCCN(NC(=O)[C@H]1CCCN1C(=O)[C@@H](NC(=O)[C@@H](NC(=O)[C@H](CC(=O)O)NC(=O)[C@H](CCC(=O)O)NC(=O)[C@@H](NC(C)=O)[C@@H](C)O)C(C)C)C(C)C)C(=O)Oc1ccc([N+](=O)[O-])cc1; assay: Binding affinity against Hepatitis C virus NS3 protease

B1: NS3 (Hepatitis C virus), A3EZJ3 (protein)
chain: APITAYAQQTRGLLGCIITGLTGRDKNQVEGEVQIVSTAAQTFLATCINGVCWTVYHGAGTRTIASSKGPVIQMYTNVDQDLVGWPAPQGARSLTPCTCGSSDLYLVTRHADVIPVRRRGDGRGSLLSPRPISYLKGSSGGPLLCPAGHAVGIFRAAVCTRGVAKAVDFIPVEGLETTMRSPVFSDNSSPPAVPQSYQVAHLHAPTGSGKSTKVPAAYAAQGYKVLVLNPSVAATLGFGAYMSKAHGIDPNIRTGVRTITTGSPITYSTYGKFLADGGCSGSAYDIIICDECHSTDATSILGIGTVLDQAETAGARLTVLATATPPGSVTVPHPNIEEVALSTTGEIPFYGKAIPLEAIKGGRHLIFCHSKKKCDELAAKLVALGVNAVAYYRGLDVSVIPASGDVVVVATDALMTGFTGDFDSVIDCNTCVTQTVDFSLDPTFTIETTTLPQDAVSRTQRRGRTGRGKPGIYRFVTPGERPSGMFDSSVLCECYDAGCAWYELTPAETTVRLRAYMNTPGLPVCQDHLEFWEGVFTGLTHIDAHFLSQTKQSGENLPYLVAYQATVCARAQAPPPSWDQMWKCLIRLKPTLHGPTPLLYRLGAVQNEITLTHPITKYIMTCMSADLEVVT
Q: B1 was tested. Which Km [1] did it give?
A: 5 µM

Q: And the Km [2]?
A: 4 µM

Q: And the Km [3]?
A: 4 µM

Q: What about the Km [4] of the same protein?
A: 9 µM

Q: And the Km [5]?
A: 100 µM

Q: What about the Km [6] of the same protein?
A: 5 µM
